Measurements as given in the Human Domainome abundance scans (Beltran et al. 2025).
± gives the uncertainty stated by the source.

B1: Zinc finger MYM-type protein 6, residues 427 to 504; numbered along this chain, O95789 (parent)
chain: KLKCQHCNHLFATKPELLFYKGKMFLFCGKNCSDEYKKKNKVVAMCDYCKLQKIIKETVRFSGVDKPFCSEVCKFLSA

Variants of: B1
Test: abundance fitness (aPCA) (normalised: wild type 0, dead -1); higher = more abundant; growth selection in yeast, the domain comes from the species named
Settings: Homo sapiens

Variant | abundance fitness
KLKCQHCNHLFATKPELLFYKGKMFLFCGKNCSDEYKKKNKVVAMCDYCKLQKIIKETVRFSGVEKPFCSEVCKFLSA | 0.142 ± 0.11
KLKCQHCNHLFATKPELLFYKGKMFLFCGKNCSDEYKKKNKVVAMCDYCKLQKIIKETVRFSGVSKPFCSEVCKFLSA | -0.188 ± 0.1
KLKCQHCNHLFATKPELLFYKGKMFLFCGKNCSDEYKKKNKVVAMCDYCKLQKIIKETVRFSGVMKPFCSEVCKFLSA | 0.006 ± 0.13
KLKCQHCNHSFATKPELLFYKGKMFLFCGKNCSDEYKKKNKVVAMCDYCKLQKIIKETVRFSGVDKPFCSEVCKFLSA | -0.066 ± 0.046
KLKCQHCNHGFATKPELLFYKGKMFLFCGKNCSDEYKKKNKVVAMCDYCKLQKIIKETVRFSGVDKPFCSEVCKFLSA | 0.049 ± 0.028
KLKCQHCNHVFATKPELLFYKGKMFLFCGKNCSDEYKKKNKVVAMCDYCKLQKIIKETVRFSGVDKPFCSEVCKFLSA | -0.002 ± 0.029
KLKCQHCNHLFATKPELLFYKGKMFLFCGKNCSDEYKKKNKVRAMCDYCKLQKIIKETVRFSGVDKPFCSEVCKFLSA | -0.224 ± 0.13
KLKCQHCNHLFATKPELLFYKGKMFLFCGKNCSDEYKKKNKVVAMCDYCKLQVIIKETVRFSGVDKPFCSEVCKFLSA | -0.127 ± 0.11
KLKCQHCNHLFATKPELLFYKGKMFLFCGKNCSDEYKKKNKVVAMCDYCKLQLIIKETVRFSGVDKPFCSEVCKFLSA | -0.351 ± 0.099
KLKCQHCNHLFATKPELLFYKGKMFLFCGKNCSDEYKKKNKVVAMCCYCKLQKIIKETVRFSGVDKPFCSEVCKFLSA | -0.16 ± 0.16
KLKCQHCNHLFATKPELLFYKGVMFLFCGKNCSDEYKKKNKVVAMCDYCKLQKIIKETVRFSGVDKPFCSEVCKFLSA | -0.091 ± 0.036
KLKCQHCNHLFATKPELLFYKGKMFLFCGKNCSDEYKKKNKVVAMCDYCKLQKILKETVRFSGVDKPFCSEVCKFLSA | -0.774 ± 0.25
KLKCQHCNHLFATKPELLFYKGKMFLFCGKNCSDEYKKKNKVVAMCDYCKLQKIRKETVRFSGVDKPFCSEVCKFLSA | -0.055 ± 0.077
KLKCQHCNHLFATKPELLFYKGKMFLFAGKNCSDEYKKKNKVVAMCDYCKLQKIIKETVRFSGVDKPFCSEVCKFLSA | -1 ± 0.061
KLKCQHCNHLFATKPELLFYKGKMFLFKGKNCSDEYKKKNKVVAMCDYCKLQKIIKETVRFSGVDKPFCSEVCKFLSA | -0.731 ± 0.14
KLKCQHCNHLFATKPELLFYKGKMFLFLGKNCSDEYKKKNKVVAMCDYCKLQKIIKETVRFSGVDKPFCSEVCKFLSA | -0.859 ± 0.087
KEKCQHCNHLFATKPELLFYKGKMFLFCGKNCSDEYKKKNKVVAMCDYCKLQKIIKETVRFSGVDKPFCSEVCKFLSA | 0.109 ± 0.035
KLKCQHCNHLFATKPELLFYKGKMFLFCGKNCSDEYKKKNKVVAMCDYCKLQKIIKETVRFSGVDKPFASEVCKFLSA | -1.23 ± 0.28

Variant | abundance fitness
KLKCQHCNHLFATKPELLFYKGKMFLFCGKNCSDEYKKKNKVVAMCDYCKLQKIIKETVRFSGVDKPFMSEVCKFLSA | -0.443 ± 0.16
KLKCQHCNHLFATKPELLFYKGKMFLFCGKNCSDEYKKKNKVVAMCDYCKLQKIIKETVRFSGVDKPFCSEVCKFLTA | -1.01 ± 0.37
KLKCQHCNHLFATKPELLFYKGKMFLFCGKNCSDEYKKKNKVVAMCDYCKLQKIIKETVRFSQVDKPFCSEVCKFLSA | -0.191 ± 0.18
KLKCQHCNHLFATKHELLFYKGKMFLFCGKNCSDEYKKKNKVVAMCDYCKLQKIIKETVRFSGVDKPFCSEVCKFLSA | -0.213 ± 0.039
KLKCQHCNHLFATKYELLFYKGKMFLFCGKNCSDEYKKKNKVVAMCDYCKLQKIIKETVRFSGVDKPFCSEVCKFLSA | -0.651 ± 0.2
KLKCQHCNHLFATKTELLFYKGKMFLFCGKNCSDEYKKKNKVVAMCDYCKLQKIIKETVRFSGVDKPFCSEVCKFLSA | -0.132 ± 0.045
KLKCQHCNHLFATKDELLFYKGKMFLFCGKNCSDEYKKKNKVVAMCDYCKLQKIIKETVRFSGVDKPFCSEVCKFLSA | -0.03 ± 0.041
KLKCQHCNHLFATKPELLFYKGKMFLFCGKNCSDELKKKNKVVAMCDYCKLQKIIKETVRFSGVDKPFCSEVCKFLSA | -0.181 ± 0.032
KLKCQHCNHLFATKPELLFYKGKMFLFCGKNCSDEWKKKNKVVAMCDYCKLQKIIKETVRFSGVDKPFCSEVCKFLSA | -0.042 ± 0.033
KLKCQHCNHLFATKPELLFYKGKMFLFCGKNCSDEYKKKNKVVAMCDYCKLQKIIKHTVRFSGVDKPFCSEVCKFLSA | 0.272 ± 0.27
KLKCQHCNHLFATKPELLFYKGKMFLFCGKNCSDEYKKKNKVVAMCDYCKHQKIIKETVRFSGVDKPFCSEVCKFLSA | 0.513 ± 0.17
KLKCQHCNHLFATKPELLFYKGKMFLFCLKNCSDEYKKKNKVVAMCDYCKLQKIIKETVRFSGVDKPFCSEVCKFLSA | -0.345 ± 0.04
KLKCQHCNHLFATKPELLFYKGKMFLFCGYNCSDEYKKKNKVVAMCDYCKLQKIIKETVRFSGVDKPFCSEVCKFLSA | -0.028 ± 0.092
KLKCQHCNHLFATKPELLFYKGKMFLFCGKNCSREYKKKNKVVAMCDYCKLQKIIKETVRFSGVDKPFCSEVCKFLSA | -0.068 ± 0.032
KLKCQHCNHLFATKPELLFYKGKMFLFCGKNCSDEYCKKNKVVAMCDYCKLQKIIKETVRFSGVDKPFCSEVCKFLSA | -0.074 ± 0.084
KLKCQHCNHLFATKPELLFYKGKMFLFCGKNCSDEYKKKNKVVAMCDYCKLQKIIKETVRFSGVDKPFCGEVCKFLSA | -0.502 ± 0.098
KLKCQHCNHLFATKPELLFYKGKMFLFCGKNCSDEYKKKNKVVAMCDYCKLQKIIKETVRFSGVDKPFCREVCKFLSA | -0.925 ± 0.14
